Our source for the Kd, binding result and IC50 values is patent US6897294 (Genentech, dated 2005).

The chains are these.
B1: flt-1(1, 2, 3)/FLT4 chimeric receptor (receptor)
chain: YSMTPPTLSLKGTQHIMQAGQTLHLQCRGEAAHKWSLPEMVSKESERLSITKSACGRNGKQFCSTLTLNTAQANHTGFYSCKYLAVPTSKKKETESAIYIFISDTGRPFVEMYSEIPEIIHMTEGRELVIPCRVTSPNITVTLKKFPLDTLIPDGKRIIWDSRKGFIISNATYKEIGLLTCEATVNGHLYKTNYLTHRQTNTIIDVQISTPRPVKLLRGHTLVLNCTATTPLNTRVQMTWSYPDEKNKRASVRRRIDQSNSHANIFYSVLTIDKMQNKDKGLYTCRVRSGPSFKSVNTSVRVHENPFISVEWLKGPILEATAGDELVKLPVKLAAYPPPEFQWYKDGKALSGRHSPHALVLKEVTEASTGTYTLALWNSAAGLRRNISLELVVNVPPQIHEKEASSPSIYSRHSRQALTCTAYGVPLPLSIQWHWRPWTPCKMFAQRSLRRRQQQDLMPQCRDWRAVTTQDAVNPIESLDTWTEFVEGKNKTVSKLVIQNANVSAMYKCVVSNKVGQDERLIYFYVTTIPDGFTIESKPSEELLEGQPVLLSCQADSYKYEHLRWYRLNLSTLHDAHGNPLLLDCKNVHLFATPLAASLEEVAPGARHATLSLSIPRVAPEHEGHYVCEVQDRRSHDKHCHKKYLSVQALEAPRLTQNLTDLLVNVSDSLEMQCLVAGAHAPSIVWYKDERLLEEKSGVDLADSNQKLSIQRVREEDAGRYLCSVCNAKGCVNSSASVAVEGSEDKGSMEIVILVGTGVIAVFFWVLLLLIFCNMRRPAHADIKTGYLSIIMDPGEVPLEEQCEYLSYDASQWEFPRERLHLGRVLGYGAFGKVVEASAFGIHKGSSCDTVAVKMLKEGATASEHRALMSELKILIHIGNHLNVVNLLGACTKPQGPLMVIVEFCKYGNLSNFLRAKRDAFSPCAEKSPEQRGRFRAMVELARLDRRRPGSSDRVLFARFSKTEGGARRASPDQEAEDLWLSPLTMEDLVCYSFQVARGMEFLASRKCIHRDLAARNILLSESDVVKICDFGLARDIYKDPDYVRKGSARLPLKWMAPESIFDKVYTTQSDVWSFGVLLWEIFSLGASPYPGVQINEEFCQRLRDGTRMRAPELATPAIRRIMLNCWSGDPKARPAFSELVEILGDLLQGRGLQEEEEVCMAPRSSQSSEEGSFSQVSTMALHIAQADAEDSPPSLQRHSLAARYYNWVSFPGCLARGAETRGSSRMKTFEEFPMTPTTYKGSVDNQTDSGMVLASEEFEQIESRHRQESGFSCKGPGQNVAVTRAHPDSQGRRRRPERGARGGQVFYNSEYGELSEPSEEDHCSPSARVTFFTDNSY
notes: Stably expressed in NIH 3T3 cells for thymidine incorporation; also called flt-1 domains 1-3/FLT4 chimeric receptor
B2: intact FLT4 receptor (receptor)
chain: YSMTPPTLNITEESHVIDTGDSLSISCRGQHPLEWAWPGAQEAPATGDKDSEDTGVVRDCEGTDARPYCKVLLLHEVHANDTGSYVCYYKYIKARIEGTTAASSYVFVRDFEQPFINKPDTLLVNRKDAMWVPCLVSIPGLNVTLRSQSSVLWPDGQEVVWDDRRGMLVSTPLLHDALYLQCETTWGDQDFLSNPFLVHITGNELYDIQLLPRKSLELLVGEKLVLNCTVWAEFNSGVTFDWDYPGKQAERGKWVPERRSQQTHTELSSILTIHNVSQHDLGSYVCKANNGIQRFRESTEVIVHENPFISVEWLKGPILEATAGDELVKLPVKLAAYPPPEFQWYKDGKALSGRHSPHALVLKEVTEASTGTYTLALWNSAAGLRRNISLELVVNVPPQIHEKEASSPSIYSRHSRQALTCTAYGVPLPLSIQWHWRPWTPCKMFAQRSLRRRQQQDLMPQCRDWRAVTTQDAVNPIISLDTWTEFVQGKNKTVSKLVIQNANVSAMYKCVVSNKVGQDERLIYFYVTTIPDGFTIESKPSEELLEGQPVLLSCQADSYKYEHLRWYRLNLSTLHDAHGNPLLLDCKNVHLFATPLAASLEEVAPGARHATLSLSIPRVAPEHEGHYVCEVQDRRSHDKHCHKKYLSVQALEAPRLTQNLTDLLVNVSDSLEMQCLVAGAHAPSIVWYKDERLLEEKSGVDLADSNQKLSIQRVREEDAGRYLCSVCNAKGCVNSSASVAVEGSEDKGSMEIVILVGTGVIAVFFWVLLLLIFCNMRRPANADIKTGYLSIIMDPGEVPLEEQCEYLSYDASQWEFPRERLHLGRVLGYGAFGFVVEASAFGIHKGSSCDTVAVKMLKEGASASEHRALMSELKILIHIGNHLNVVNLLGACTKPQGPLMVIVEFCKYGNLSNFLRAKRDAFSPCAEKSPEQRGRFRAMVELARLDRRRPGSSDRVLFARFSKSEGGARRASPDQEAEDLWLSPLTMEDLVCYSFQVARGMEFLASRKCIHRDLAARNILLSESDVVKICDFGLARDIYKDPDYVRKGSARLPLKWMAPESIFDKVYTTQSDVMSFGVLLWEIFSLGASPYPGVQINEEFCQRLRDGTRMRAPELATPAIRRIMLNCWSGDPKARPAFSEVLEILGDLLQGRGLQEEEEVCMAPRSSQSSEEGSFSQVSTMALHIIQADAEDSPPSLQRHSLAARYYNWVSFPGCLARGAETRGSSRMKTFEEFPMTPTTYKGSVDNQTDSGMVLASEEFEQIESRHRQESGFSCKGPGQNVAVTRAHPDSQGRRRRPERGARGGQVFYNSEYGELSEPSEEDHCSPSARVTFFTDNSY
notes: Transiently expressed on 293 cells; also called entire human FLT4 receptor
B3: vascular endothelial growth factor VEGF165 (ligand, UniProt P15692-4 27-191, looked up)
chain: APMAEGGGQNHHEVVKFMDVYQRSYCHPIETLVDIFQEYPDEIEYIFKPSCVPLMRCGGCCNDEGLECVPTEESNITMQIMRIKPHQGQHIGEMSFLQHNKCECRPKKDRARQENPCGPCSERRKHLFVQDPQTCKCSCKNTDSRCKARQLELNERTCRCDKPRR
notes: mature; also called VEGF ligand

Assay [1] addresses B3. The assay is described as follows: saturation binding of 125I-VEGF to transiently transfected 293 cells, Scatchard analysis. On the procedure: (§1) After preparation of these expression constructs, 293 cells were transfected with the constructs via DEAE-Dextran and transiently-expressing cells were analyzed for the ability to bind to the VEGF ligand. To detect binding of the VEGF ligand, a saturation binding assay was performed on transiently-expressing 293 cells expressing the intact FLT4 receptor, the flt-1 domain 2/FLT4 chimeric receptor, the flt-1 domains 1–3/FLT4 chimeric receptor, or the intact flt-1 receptor. […] The cell mixture was then layered over a 0.75 ml cushion of 30% sucrose, centrifuged for 10 minutes at maximum speed, and the pellet was recovered and counted in a gamma counter. […] The amount of counts added and the recovered counts bound were then subjected to scatchard analysis.

In assay [2] the target is B3. As to the kind of experiment: saturation binding of 125I-VEGF to transiently transfected 293 cells, background of non-transfected cells subtracted. The protocol: as §1
Assay [3] has as its target T1, flt-1 extracellular domain/IgG Fc chimera (flt-1/IgG) (human, UniProt P17948 27-758).
T1 construct: Secreted from CEN4 cells and used as conditioned medium quantified by Fc ELISA; also called intact flt-1/IgG chimeric VEGF receptor protein; native flt-1/IgG; not shown: Fc of human IgG1 (amino acids 216-443 of the Capon IgG gamma-1 heavy chain clone)
As to the kind of experiment: unlabeled VEGF titrated against 125I-VEGF165 binding to 1 ng immunoreactive flt-1/IgG on anti-Fc plates; 4-parameter fit (FIG. 5). On the procedure: (§2) Binding assays with the soluble chimeric VEGF receptors generated in Example 1 above were performed essentially as described by Park et al., *J. Biol. Chem.* 269:25646–25654 (1994). […] Plates were blocked for 1 hr with 10% fetal bovine serum in PBS (buffer B). After removal of the blocking buffer, 100 µl of a binding cocktail was added to each well. […] The specific activity of the iodinated VEGF was 5.69 ×10^7 cpm/microgram. Incubation in the coated wells proceeded for 4 hrs at room temperature, followed by 4 washes with buffer B. Binding was determined by counting individual wells in a gamma counter. Data was analyzed using a 4-parameter non-linear curve fitting program (Kalidagraph, Abelbeck Software).
Binding assays were performed essentially as described above. […] This occurs at the point of inflection of the curve. […] Thus, the flt(1, 2, 3) deletion chimera behaves in a similar fashion to the intact flt-1/IgG chimeric protein with respect to binding to the VEGF ligand.

The target in assay [4] is T2, flt-1(2)/FLT4 chimeric receptor (human, UniProt P35916 25-1363).
T2 construct: Stably expressed in NIH 3T3 cells for thymidine incorporation; also called flt-1 domain 2/FLT4 chimeric receptor
As to the kind of experiment: saturation binding of 125I-VEGF to transiently transfected 293 cells, Scatchard analysis. On the procedure: as §1

Assay [5] addresses T3, flt(2): flt-1 Ig-like domain 2 only fused to the Fc of IgG (human, UniProt P01857-1 104-330 = IgG part, limits assumed).
T3 construct: domain: Fc of IgG
The assay is described as follows: 125I-VEGF165 binding to chimeric protein captured on anti-human Fc coated plates (FIG. 4). The protocol: as §2

Assay [6] deals with T4, flt(1,2): flt-1 Ig-like domains 1 and 2 only fused to the Fc of IgG (human, UniProt P01857-1 104-330 = IgG part, limits assumed).
T4 construct: domain: Fc of IgG; The true C-terminal limit may therefore be 225
T4 sequence (P01857 other isoform, or with tags, fused parts or gaps limits assumed): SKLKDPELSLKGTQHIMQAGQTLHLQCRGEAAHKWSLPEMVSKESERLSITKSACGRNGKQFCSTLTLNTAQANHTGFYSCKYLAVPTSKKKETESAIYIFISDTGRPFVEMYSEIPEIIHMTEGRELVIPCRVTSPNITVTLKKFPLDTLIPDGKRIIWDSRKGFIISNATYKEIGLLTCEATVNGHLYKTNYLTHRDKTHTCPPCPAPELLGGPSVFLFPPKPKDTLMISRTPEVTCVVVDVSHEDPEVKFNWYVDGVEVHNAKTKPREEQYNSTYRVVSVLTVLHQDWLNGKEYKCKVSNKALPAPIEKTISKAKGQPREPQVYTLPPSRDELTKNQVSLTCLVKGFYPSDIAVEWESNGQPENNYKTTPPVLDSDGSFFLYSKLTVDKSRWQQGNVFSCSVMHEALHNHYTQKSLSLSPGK
The assay is described as above. On the procedure:
as §2

T3 sequence (P01857 other isoform, or with tags, fused parts or gaps limits assumed): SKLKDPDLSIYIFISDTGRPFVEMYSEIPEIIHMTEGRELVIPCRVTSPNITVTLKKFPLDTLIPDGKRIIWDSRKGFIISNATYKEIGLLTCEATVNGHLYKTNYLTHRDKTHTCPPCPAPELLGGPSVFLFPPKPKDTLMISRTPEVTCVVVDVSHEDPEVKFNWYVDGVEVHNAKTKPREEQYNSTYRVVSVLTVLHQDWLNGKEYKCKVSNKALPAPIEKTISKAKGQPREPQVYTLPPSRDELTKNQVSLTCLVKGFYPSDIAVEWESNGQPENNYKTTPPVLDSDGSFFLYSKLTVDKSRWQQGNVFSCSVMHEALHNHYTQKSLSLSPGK
T1 sequence (P17948 other isoform, or with tags, fused parts or gaps mutant limits assumed): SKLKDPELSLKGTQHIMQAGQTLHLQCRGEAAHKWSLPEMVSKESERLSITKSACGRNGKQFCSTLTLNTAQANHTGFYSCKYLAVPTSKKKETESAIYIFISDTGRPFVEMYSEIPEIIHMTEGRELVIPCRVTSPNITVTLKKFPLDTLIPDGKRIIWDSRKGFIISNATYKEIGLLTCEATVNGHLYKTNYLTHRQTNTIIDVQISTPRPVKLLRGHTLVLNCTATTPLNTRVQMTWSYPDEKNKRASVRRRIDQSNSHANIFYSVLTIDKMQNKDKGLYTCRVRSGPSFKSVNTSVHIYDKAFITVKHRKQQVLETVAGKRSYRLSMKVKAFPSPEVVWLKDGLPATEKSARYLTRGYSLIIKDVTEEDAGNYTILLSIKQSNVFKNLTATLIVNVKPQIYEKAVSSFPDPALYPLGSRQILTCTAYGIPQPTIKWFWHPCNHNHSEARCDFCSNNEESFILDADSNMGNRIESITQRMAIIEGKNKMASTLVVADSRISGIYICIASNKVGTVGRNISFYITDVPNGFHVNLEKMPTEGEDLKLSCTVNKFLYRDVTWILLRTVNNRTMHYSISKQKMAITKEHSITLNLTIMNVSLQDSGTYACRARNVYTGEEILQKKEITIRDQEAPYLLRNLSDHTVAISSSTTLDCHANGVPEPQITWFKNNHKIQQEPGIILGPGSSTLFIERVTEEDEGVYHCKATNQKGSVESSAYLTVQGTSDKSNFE

B1 yielded a dissociation constant (Kd) in assay [1] of around 10.4 pM.

As to B2, the binding result in assay [2] is “no binding”.

As to B3, the IC50 in assay [3] amounted to 1.89 ng/mL. Also, the Kd in assay [4] was around 10.2 pM. Also, the binding result in assay [5] and in assay [6] was “no binding” throughout.

Usually Kd stands for the concentration at which binding is half-saturated. Low values mean a tighter complex, high ones a looser complex. Broadly, the IC50 is the concentration at which inhibition is half-maximal. A high value points to a need for much substance.
